B1: lamin A (human, mature form, without tags, wild type) [human] / itself (parent)
chain: METPSQRRATRSGAQASSTPLSPTRITRLQEKEDLQELNDRLAVYIDRVRSLETENAGLRLRITESEEVVSREVSGIKAAYEAELGDARKTLDSVAKERARLQLELSKVREEFKELKARNTKKEGDLIAAQARLKDLEALLNSKEAALSTALSEKRTLEGELHDLRGQVAKLEAALGEAKKQLQDEMLRRVDAENRLQTMKEELDFQKNIYSEELRETKRRHETRLVEIDNGKQREFESRLADALQELRAQHEDQVEQYKKELEKTYSAKLDNARQSAERNSNLVGAAHEELQQSRIRIDSLSAQLSQLQKQLAAKEAKLRDLEDSLARERDTSRRLLAEKEREMAEMRARMQQQLDEYQELLDIKLALDMEIHAYRKLLEGEEERLRLSPSPTSQRSRGRASSHSSQTQGGGSVTKKRKLESTESRSSFSQHARTSGRVAVEEVDEEGKFVRLRNKSNEDQSMGNWQIKRQNGDDPLLTYRFPPKFTLKAGQVVTIWAAGAGATHSPPTDLVWKAQNTWGCGNSLRTALINSTGEEVAMRKLVRSVTVVEDDEDEDGDDLLHHHHGSHCSSSGDPAEYNLRSRTVLCGTCGQPADKASASGSGAQVGGPISSGSSASSVTVTRSYRSVGGSGGGSFGDNLVTRSY

The first assay covers variants of B1. Briefly: rotary metal shadowing EM. The following applies: with itself; n = 1000 per mutant; parent: 22; read off a plot.
As to chain 1 R7E R8E, the screen value was determined as 13%.

Staying with this assay, now noted: with itself; n = 1000 per mutant; parent: 35; read off a plot.
For chain 1 R7E R8E, the screen value is 30%.

Still in this assay, the particulars now being: with itself; n = 1000 per mutant; parent: 43; read off a plot.
Regarding chain 1 R7E R8E, the screen value is 57%.

In another assay the parent is B1. Briefly: in vitro assembly/solubility assay (centrifugation, SDS-PAGE band quantification). The conditions noted are these: with itself; oligomerisation buffer; n = 3 independent replicas; parent: 1; read off a plot.
chain 1 R7E R8E: the ratio to parent worked out at 3.7.
